Laboratory results taken from patent publication US20250215104A1 (WALDEN BIOSCIENCES, published 2025).
Substitutions are numbered along the chain they refer to.

B1: suPAR_DB02_D01 (scFv, V domains shown)
VH: QVQLVQSGAEVKKPGASVKVSCKASGYTFTDYYMHWVRQAPGQGLEWMGWIDHENGNTIYDQKFQGRVTMTRDTSTSTVYMELSSLRSEDTAVYYCARGYDVDWFVYWGQGTLVTVSS
VL: DIQMTQSPSSLSASVGDRVTITCSARSSVSYMYWYQQKPGKAPKLLIYRTSNLASGVPSRFSGSGSGTDFTLTISSLQPEDFATYYCQQYHSYPPTFGGGTKVEIK
notes: scFv clone from phage display
B2: suPAR_DB02_C06 (scFv, V domains shown)
VH: B1 VH with Y27F, T28N, F29I
VL: B1 VL with R26S, S27Q
notes: scFv clone from phage display
B3: suPAR_DB02_C07 (scFv, V domains shown)
VH: B1 VH with Y32S, M34I, H53A, E54N, N57D, I59N, D61A, Q62E, K63R
VL: B1 VL
notes: scFv clone from phage display
B4: suPAR_DB02_C09 (scFv, V domains shown)
VH: B1 VH with D31G, M48V, W50L, D52N, H53P, E54S, N55D, N57Y, I59T, D61A
VL: B1 VL
notes: scFv clone from phage display
B5: suPAR_DB02_D04 (scFv, V domains shown)
VH: B1 VH with Y27F, F29I, T30K, H53P, E54D, N55S, N57G, I59N, D61A, Q62E
VL: B1 VL with S24R, S27Q
notes: scFv clone from phage display
B6: suPAR_DB02_D06 (scFv, V domains shown)
VH: B1 VH with Y27D, T30A, D31N, D52I, H53P, E54N, N55S, N57D, I59N, D61A
VL: B1 VL with N52S, A54Q
notes: scFv clone from phage display
B7: suPAR_DB02_E05 (scFv, V domains shown)
VH: QVQLVQSGAEVKKPGASVKVSCKASGFNIKDYYIHWVRQAPGQGLEWMGWVDPSSGATDYAQKFQGRVTMTRDTSTSTVYMELSSLRSEDTAVYYCARGYDVDWFVYWGQGTLVTVSS
VL: B1 VL
notes: scFv clone from phage display
B8: suPAR_DB02_E09 (scFv, V domains shown)
VH: B7 VH with V51I, S54N, A57G, D59N
VL: B1 VL
notes: scFv clone from phage display
B9: suPAR_DB02_E11 (scFv, V domains shown)
VH: B1 VH with Y27G, T30S, D31N
VL: B1 VL with S24R, S27Q, N52S
notes: scFv clone from phage display
B10: suPAR_DB02_F04 (scFv, V domains shown)
VH: B1 VH with F29L, D31S, M34V, H53P, E54K, N55S, N57D, I59K, D61A, Q62H
VL: B1 VL
notes: scFv clone from phage display
B11: suPAR_DB02_F06 (scFv, V domains shown)
VH: B7 VH with I29F, K30T, V51I, S54N, A57S, D59N, K63N, D101M
VL: B1 VL
notes: scFv clone from phage display
B12: suPAR_DB02_F07 (scFv, V domains shown)
VH: B1 VH with D31G, M34V, H53P, N55G
VL: B1 VL with S24R, S27Q, A54Q
notes: scFv clone from phage display
B13: suPAR_DB02_F08 (scFv, V domains shown)
VH: B1 VH with D31G, M34I, H53P, D61A
VL: B1 VL with R26S, V29I
notes: scFv clone from phage display
B14: suPAR_DB02_F09 (scFv, V domains shown)
VH: B1 VH with D31G, H53P, N55G, N57S, R98G
VL: B1 VL
notes: scFv clone from phage display
B15: suPAR_DB02_F11 (scFv, V domains shown)
VH: B1 VH with D31S, Y32S
VL: B1 VL with S24R, V29I
notes: scFv clone from phage display
B16: suPAR_DB02_F12 (scFv, V domains shown)
VH: B1 VH with Y27D, T28M, D31G, M34L
VL: B1 VL with N52S
notes: scFv clone from phage display
B17: suPAR_DB02_G05 (scFv, V domains shown)
VH: B1 VH with D31G, Y32H, H53P, N55G, D61A
VL: B1 VL with R26S
notes: scFv clone from phage display
B18: suPAR_DB02_G09 (scFv, V domains shown)
VH: B7 VH with N28T, I34M, V51I, S55N, D59N, Y60S, K63N
VL: B1 VL with S24R, R26S
notes: scFv clone from phage display
B19: suPAR_DB02_G10 (scFv, V domains shown)
VH: B1 VH with D31N, H53P, N57S
VL: B1 VL with S24R, S27Q, A54E, S55T
notes: scFv clone from phage display
B20: suPAR_DB02_G11 (scFv, V domains shown)
VH: B1 VH with Y27D, D31G, N55G, D61A
VL: B1 VL
notes: scFv clone from phage display
B21: suPAR_DB02_H02 (scFv, V domains shown)
VH: B1 VH with D31G, M34L, H53P, N57S
VL: B1 VL
notes: scFv clone from phage display
B22: suPAR_DB02_E06 (scFv, V domains shown)
VH: B1 VH with D31G, H53P
VL: B1 VL
notes: scFv clone from phage display
B23: suPAR_DB02_C10 (scFv, V domains shown)
VH: B1 VH with M34V, N55G, N57S
VL: B1 VL
notes: scFv clone from phage display
B24: suPAR_DB02_C11 (scFv, V domains shown)
VH: B1 VH with T28N, T30K, M34I, N57S, D61A
VL: B1 VL with S27Q
notes: scFv clone from phage display
B25: suPAR_DB02_C12 (scFv, V domains shown)
VH: B1 VH with F29L, H53P, N55G, I59S
VL: B1 VL
notes: scFv clone from phage display
B26: suPAR_DB02_D02 (scFv, V domains shown)
VH: B1 VH with Y27D, D31S, N55G, I59S, D61A
VL: B1 VL
notes: scFv clone from phage display
B27: suPAR_DB02_D03 (scFv, V domains shown)
VH: B1 VH with D31S, Y32H
VL: B1 VL
notes: scFv clone from phage display
B28: suPAR_DB02_D05 (scFv, V domains shown)
VH: B1 VH with D31S
VL: B1 VL
notes: scFv clone from phage display
B29: suPAR_DB02_D08 (scFv, V domains shown)
VH: B1 VH with D31N
VL: B1 VL with S24R, S27Q
notes: scFv clone from phage display
B30: suPAR_DB02_D10 (scFv, V domains shown)
VH: B1 VH with D31G, H53P, N55G
VL: B1 VL
notes: scFv clone from phage display
B31: suPAR_DB02_D11 (scFv, V domains shown)
VH: B7 VH with V51I, S54E, S55N, A57N, D59I, A61D
VL: B1 VL
notes: scFv clone from phage display
B32: suPAR_DB02_D12 (scFv, V domains shown)
VH: B1 VH with T30S, D31N, N55G, N57S, D61A
VL: B1 VL with Y90S
notes: scFv clone from phage display
B33: suPAR_DB02_E02 (scFv, V domains shown)
VH: B1 VH
VL: B1 VL with N52S, A54Q
notes: scFv clone from phage display
B34: suPAR_DB02_E04 (scFv, V domains shown)
VH: B1 VH with D31N, M34I, H35Q
VL: B1 VL
notes: scFv clone from phage display
B35: suPAR_DB02_E07 (scFv, V domains shown)
VH: B7 VH with F27Y, I29F, K30N, D31A, I34M, V51I, S54H, A57G, D59N
VL: B1 VL
notes: scFv clone from phage display
B36: suPAR_DB02_E08 (scFv, V domains shown)
VH: B1 VH with T28N, F29I, T30K, D31S, M34I, R98A
VL: B1 VL
notes: scFv clone from phage display

The binders below were run against T1, human soluble urokinase plasminogen activator receptor (suPAR) (human, UniProt Q03405 23-303, limits assumed) (assay: BLI (Octet) off-rate screen of scFv clones).
T1 construct: Column head says only 'human'; also called human suPAR; hsuPAR
T1 sequence (Q03405 23-303 limits assumed): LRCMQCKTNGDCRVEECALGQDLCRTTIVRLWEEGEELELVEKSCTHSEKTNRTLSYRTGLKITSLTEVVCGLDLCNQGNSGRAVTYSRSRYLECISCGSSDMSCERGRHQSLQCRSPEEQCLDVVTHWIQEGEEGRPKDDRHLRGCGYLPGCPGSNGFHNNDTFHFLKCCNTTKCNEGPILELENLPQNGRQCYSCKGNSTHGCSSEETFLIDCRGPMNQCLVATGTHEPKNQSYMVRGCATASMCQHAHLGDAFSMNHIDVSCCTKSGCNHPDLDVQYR

Going from B1 to B2, the koff rises from 0.003 s⁻¹ to 0.00475 s⁻¹ (1.6-fold).

B3 and B4 are within 1.5-fold of each other in koff: 0.0026 s⁻¹ for the first, 0.00387 s⁻¹ for the second.

B5 and B6 are within 1.5-fold of each other in koff: 0.0041 s⁻¹ for the first, 0.00416 s⁻¹ for the second.

First: B7
Second: B8
The koff of the first is 2-fold lower: 0.00239 s⁻¹ for the first, 0.00473 s⁻¹ for the second.

B9 and B10 are within 1.5-fold of each other in koff: 0.00423 s⁻¹ for the first, 0.00384 s⁻¹ for the second.

First: B11
Second: B12
The koff of the first is 2.5-fold higher: 0.00495 s⁻¹ for the first, 0.002 s⁻¹ for the second.

B13 and B14 are within 1.5-fold of each other in koff: 0.0021 s⁻¹ for the first, 0.00166 s⁻¹ for the second.

First: B15
Second: B16
The koff of the first is 2.5-fold lower: 0.00198 s⁻¹ for the first, 0.00494 s⁻¹ for the second.

First: B17
Second: B18
The koff of the first is 3-fold lower: 0.00242 s⁻¹ for the first, 0.00733 s⁻¹ for the second.

B19 and B20 are within 1.5-fold of each other in koff: 0.00562 s⁻¹ for the first, 0.00561 s⁻¹ for the second.

Going from B21 to B22, the koff falls from 0.00579 s⁻¹ to 0.00239 s⁻¹ (2.4-fold).

Compared with B23, B24 is 1.9-fold higher in koff: 0.00257 s⁻¹ for the first, 0.0049 s⁻¹ for the second.

B25 and B26 are within 1.5-fold of each other in koff: 0.00319 s⁻¹ for the first, 0.00436 s⁻¹ for the second.

Going from B27 to B28, the koff falls from 0.0055 s⁻¹ to 0.00358 s⁻¹ (1.5-fold).

B29 and B30 are within 1.5-fold of each other in koff: 0.00202 s⁻¹ for the first, 0.00178 s⁻¹ for the second.

B31 and B32 are within 1.5-fold of each other in koff: 0.00415 s⁻¹ for the first, 0.00611 s⁻¹ for the second.

B33 and B34 are within 1.5-fold of each other in koff: 0.00438 s⁻¹ for the first, 0.00311 s⁻¹ for the second.

B35 and B36 are within 1.5-fold of each other in koff: 0.00392 s⁻¹ for the first, 0.0031 s⁻¹ for the second.

The binders below were run against T2, cynomolgus soluble urokinase plasminogen activator receptor (suPAR) (cynomolgus, UniProt Q9GK78 23-303, limits assumed) (assay: BLI (Octet) off-rate screen of scFv clones).
T2 construct: Column head says only 'cynomologus'; also called cynomolgus suPAR; cynomolgus uPAR
T2 sequence (Q9GK78 23-303 limits assumed): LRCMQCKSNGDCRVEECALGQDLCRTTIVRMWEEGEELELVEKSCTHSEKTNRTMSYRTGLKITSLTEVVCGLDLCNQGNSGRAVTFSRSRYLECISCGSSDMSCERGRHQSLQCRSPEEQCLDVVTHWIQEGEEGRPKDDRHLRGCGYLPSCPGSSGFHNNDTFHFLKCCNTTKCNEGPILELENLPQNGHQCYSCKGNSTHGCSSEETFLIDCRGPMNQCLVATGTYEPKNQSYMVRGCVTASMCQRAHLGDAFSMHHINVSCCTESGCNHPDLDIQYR

First: B1
Second: B2
The koff of the first is 300-fold lower: 4.7e-07 s⁻¹ for the first, 0.000141 s⁻¹ for the second.

B4 and B5 are within 1.5-fold of each other in koff: 0.000335 s⁻¹ for the first, 0.000281 s⁻¹ for the second.

Going from B6 to B7, the koff rises from 0.00051 s⁻¹ to 0.00146 s⁻¹ (2.9-fold).

Compared with B8, B9 is 1.8-fold higher in koff: 0.00021 s⁻¹ for the first, 0.000376 s⁻¹ for the second.

First: B10
Second: B11
The koff of the first is 2.6-fold higher: 0.000453 s⁻¹ for the first, 0.000174 s⁻¹ for the second.

Going from B12 to B13, the koff falls from 0.000384 s⁻¹ to 2.47e-05 s⁻¹ (16-fold).

B14 and B15 are within 1.5-fold of each other in koff: 0.000624 s⁻¹ for the first, 0.000613 s⁻¹ for the second.

Going from B16 to B17, the koff rises from 9.82e-05 s⁻¹ to 0.000521 s⁻¹ (5.3-fold).

Compared with B18, B19 is 1.7-fold higher in koff: 0.00025 s⁻¹ for the first, 0.00043 s⁻¹ for the second.

Compared with B20, B21 is 3.8-fold higher in koff: 0.00013 s⁻¹ for the first, 0.000498 s⁻¹ for the second.

B22 and B23 are within 1.5-fold of each other in koff: 0.000295 s⁻¹ for the first, 0.000198 s⁻¹ for the second.

B24 and B25 are within 1.5-fold of each other in koff: 0.0004 s⁻¹ for the first, 0.000582 s⁻¹ for the second.

Going from B26 to B27, the koff rises from 2.49e-05 s⁻¹ to 0.000188 s⁻¹ (7.6-fold).

B28 and B29 are within 1.5-fold of each other in koff: 0.000305 s⁻¹ for the first, 0.000345 s⁻¹ for the second.

B30 and B31 are within 1.5-fold of each other in koff: 0.000381 s⁻¹ for the first, 0.000265 s⁻¹ for the second.

First: B32
Second: B33
The koff of the first is 20-fold higher: 0.0038 s⁻¹ for the first, 0.000189 s⁻¹ for the second.

B34 and B35 are within 1.5-fold of each other in koff: 0.000217 s⁻¹ for the first, 0.000177 s⁻¹ for the second.

For B36, the koff was 0.000363 s⁻¹.
